Experimental findings from article doi:10.1101/2020.01.13.904318 (bioRxiv, 2020) are described below.

This data set deals with the molecule itself. Nature of the data set: SEC. On the technique in general: SEC sorts molecules by how far they enter the pores of the column.

B1: purified FrlR UTRA-domain (domain or fragment)
chain: QKVENALLTVSGFTDFGVSQGKATKEKVIEQERVSAAPFCEKLNIPGNSEVFHLCRVMYLDKEPLFIDSSWIPLSRYPDFDEIYVEGSSTYQLFQERFDTRVVSDKKTIDIFAATRPQAKWLKCELGEPLFRISKIAFDQNDKPVHVSELFCRANRITLTIDNKRH
For the protein B1, the stoichiometry N – broadly, the number of molecules, sites or subunits per partner or assembly – amounted to 2.
